Measured values reported in US20150290319A1.
pKd: −log10 of the molar value.

Tests used:
[1] = target: MDX1388
[2] = target: Clostridium difficile toxin B (whole toxin B) (Clostridium difficile)
[3] = target: Clostridium difficile toxin B (whole toxin B) (Clostridium difficile); assay: cell-based or functional assay

Row | Substance | IC50 (read off the curve) [1] [µg/mL] | pKd [2] | koff [2] [s⁻¹] | kon [2] [M⁻¹ s⁻¹] | Mean EC50, neutralization of TcdB on HT-29 cells (xCELLigence) [3] [µg/mL]
1 | Clostridium difficile toxin B (whole toxin B) | 0.05 |  |  |  | 
2 | MDX1388 (antibody) |  | 8.42 | 0.000139 | 36200 | 125
